Assay results as given in the supplement of paper PMC7877785.
± gives the uncertainty stated by the source.

Experiment: self-splicing fitness, log relative to wild type (ln ratio); higher = more splicing; Tetrahymena group I intron in knt gene, E. coli kanamycin selection, DiMSum; sequences stand for … in CUCUCU…GGAGGGAAAAGUUAUCAGGCAUGCACCUGGUAGCUAGUCUUUAAACCAAUAGAUUGCAUCGGUUUAAAAGGCAAGACCGUCAAAUUGCGGGAAAGGGGUCAACAGCCGUUCAGUACCAAGUCUCAGGGGAAACUUUGAGAUGGCCUUGCAAAGGGUAUGGUAAUAAGCUGACGGACAUGGUCCUAACCACGCAGCCAAGUCCUAAGUCAACAGAUCUUCUGUUGAUAUGGAUGCAGUUCACAGACUAAAUGUCGGUCGGGGAAGAUGUAUUCUUCUCAUAAGAUAUAGUCGGACCUCUCCUUAAUGGGAGCUAGCGGAUGAAGUGAUGCAACACUGGAGCCGCUGGGAACUAAUUUGUAUGCGAAAGUAUAUUGAUUAGUUUUGGAGUACUCGUGGUCG
Procedure, shortened: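 Six replicate transformations of E. coli BL21(DE3) with a pET-22b(+) library were grown overnight at 37°C or 30°C. The library randomised all eight P1ex-region intron nucleotides, the intron lying in the knt kanamycin-resistance gene, and plates were LB agar with or without 25 μg/mL kanamycin plus 100 μg/mL carbenicillin, 50 μM IPTG and 0.2% rhamnose. Pooled colonies were amplicon-sequenced on an Illumina HiSeq 2500, and fitness is the DiMSum error-weighted combination of wild-type-normalised replicate fold changes, kanamycin versus none.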

Row | Sequence | self-splicing fitness (ln) (30 °C) | self-splicing fitness (ln) (37 °C)
1 | CAAUAGCAAUAUUACGUUUC | -4.35 ± 0.2 | -3.13 ± 0.19
2 | AUAGAGCAAUAUUACGCCAG | -2.27 ± 0.21 | -1.14 ± 0.27
3 | GCUAAGCAAUAUUACGGCGU | -0.935 ± 0.068 | -0.141 ± 0.091
4 | CCCGAGCAAUAUUACGCGUU | -4.43 ± 0.3 | -2.22 ± 0.28
5 | CUAGAGCAAUAUUACGACAA | -2.53 ± 0.32 | -1.84 ± 0.34
6 | GCAAAGCAAUAUUACGCCCA | -1.56 ± 0.16 | -0.194 ± 0.15
7 | AGUAAGCAAUAUUACGGUCG | -1.95 ± 0.083 | -0.559 ± 0.087
8 | CGAAAGCAAUAUUACGAAAA | -2.38 ± 0.29 | -1.32 ± 0.23
9 | UGGCAGCAAUAUUACGAGGC | -2.12 ± 0.2 | 
10 | CACUAGCAAUAUUACGGUUA | -1.99 ± 0.12 | -0.466 ± 0.1
11 | GACAAGCAAUAUUACGGACC | -1.32 ± 0.1 | -0.785 ± 0.11
12 | AGUUAGCAAUAUUACGAAAA | -2.79 ± 0.49 | -1.5 ± 0.32
13 | CCUCAGCAAUAUUACGUGAA | -3.66 ± 0.2 | -2.22 ± 0.2
14 | GCGAAGCAAUAUUACGGCAC | 0.112 ± 0.13 | 0.387 ± 0.17
15 | UGAAAGCAAUAUUACGCGCG | -0.237 ± 0.079 | -0.153 ± 0.1
16 | GAGCAGCAAUAUUACGUGAA | -0.549 ± 0.079 | -0.526 ± 0.13
17 | CGUCAGCAAUAUUACGAAUA | -2.58 ± 0.16 | -1.98 ± 0.16
18 | GUGCAGCAAUAUUACGUAUA | -1.42 ± 0.073 | 0.0392 ± 0.069
19 | GUCAAGCAAUAUUACGCGGG | -4.2 ± 0.2 | -3.33 ± 0.24
20 | CCGGAGCAAUAUUACGUCUA |  | -1.85 ± 0.33

Row | Sequence | self-splicing fitness (ln) (30 °C) | self-splicing fitness (ln) (37 °C)
21 | GUACAGCAAUAUUACGCAAC | -2.08 ± 0.18 | -0.557 ± 0.17
22 | UGGAAGCAAUAUUACGGGUC |  | -3.04 ± 0.38
23 | UGCAAGCAAUAUUACGGUAG | -0.738 ± 0.073 | -0.376 ± 0.081
24 | CGAAAGCAAUAUUACGUUUU | -4.51 ± 0.24 | -2.31 ± 0.18
25 | CUAUAGCAAUAUUACGGAAC |  | -1.63 ± 0.49
26 | GGGAAGCAAUAUUACGCUAG | -1.73 ± 0.18 | -1.01 ± 0.2
27 | ACAGAGCAAUAUUACGUAGU | -1.7 ± 0.14 | -2.87 ± 0.21
28 | GGUAAGCAAUAUUACGCAAU | -1.38 ± 0.11 | -1.44 ± 0.14
29 | CCCCAGCAAUAUUACGUAAG | -3.18 ± 0.12 | -1.33 ± 0.12
30 | GAUGAGCAAUAUUACGCCUA | -1.7 ± 0.29 | -0.51 ± 0.26
31 | CUUCAGCAAUAUUACGCAAC | -2.86 ± 0.21 | 
32 | CGGUAGCAAUAUUACGAACU | -1.3 ± 0.17 | -0.755 ± 0.17
33 | UUGUAGCAAUAUUACGAAAC |  | -2.66 ± 0.48
34 | AUCGAGCAAUAUUACGUCAA | -2.72 ± 0.25 | -1.3 ± 0.29
35 | CCAUAGCAAUAUUACGUAGC | -2.52 ± 0.21 | -2.05 ± 0.47
36 | CAGAAGCAAUAUUACGGGAA | -3.21 ± 0.23 | -1.37 ± 0.25
37 | UGUGAGCAAUAUUACGUAUA | -3.5 ± 0.4 | -2.03 ± 0.21
38 | GCCCAGCAAUAUUACGCGAU | -2.76 ± 0.13 | 0.119 ± 0.1
39 | GUCCAGCAAUAUUACGCCUC | -0.866 ± 0.12 | 0.705 ± 0.15
40 | GAAUAGCAAUAUUACGAUCU | 0.384 ± 0.078 | -0.286 ± 0.079
